Molecular target: T1, FcγRIIa H (human, UniProt P12318 34-217)
T1 construct: extracellular domain; also called FcgRIIa H type; 2aH; not shown: His tag at the C terminus
T1 sequence (looked up): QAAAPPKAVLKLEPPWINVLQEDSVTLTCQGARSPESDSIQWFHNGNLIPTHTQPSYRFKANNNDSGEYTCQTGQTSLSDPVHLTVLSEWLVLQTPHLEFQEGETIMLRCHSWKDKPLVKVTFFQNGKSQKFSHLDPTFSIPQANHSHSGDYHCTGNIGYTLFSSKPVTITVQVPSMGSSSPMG
Experiment: SPR Biacore, relative binding

Row | Binder | He/Con_2aH
1 | GpH7-A5/GpH7-B3 variant H268_18N/GpL16-k0 (antibody, human IgG1, kappa, also called He Ab H268_18N) heavy 1: not shown heavy 2: not shown light: DIVMTQSPLSLPVTPGEPASISCQASESLVHSNRNTYLHWYLQKPGQSPQLLIYKVSNRFSGVPDRFSGSGSGTDFTLKISRVEAEDVGVYYCSQNTHVPPTFGQGTKVEIERTVAAPSVFIFPPSDEQLKSGTASVVCLLNNFYPREAKVQWKVDNALQSGNSQESVTEQDSKDSTYSLSSTLTLSKADYEKHKVYACEVTHQGLSSPVTKSFNRGEC | 112 % of GpH7-A5/GpH7-B3/GpL16-k0 (=100)
2 | GpH7-A5/GpH7-B3 variant I332_15Y/GpL16-k0 (antibody, human IgG1, kappa, also called He Ab I332_15Y) heavy 1: not shown heavy 2: not shown light: DIVMTQSPLSLPVTPGEPASISCQASESLVHSNRNTYLHWYLQKPGQSPQLLIYKVSNRFSGVPDRFSGSGSGTDFTLKISRVEAEDVGVYYCSQNTHVPPTFGQGTKVEIERTVAAPSVFIFPPSDEQLKSGTASVVCLLNNFYPREAKVQWKVDNALQSGNSQESVTEQDSKDSTYSLSSTLTLSKADYEKHKVYACEVTHQGLSSPVTKSFNRGEC | 115 % of GpH7-A5/GpH7-B3/GpL16-k0 (=100)
3 | GpH7-A5/GpH7-B3 variant K326_06M/GpL16-k0 (antibody, human IgG1, kappa, also called He Ab K326_06M) heavy 1: not shown heavy 2: not shown light: DIVMTQSPLSLPVTPGEPASISCQASESLVHSNRNTYLHWYLQKPGQSPQLLIYKVSNRFSGVPDRFSGSGSGTDFTLKISRVEAEDVGVYYCSQNTHVPPTFGQGTKVEIERTVAAPSVFIFPPSDEQLKSGTASVVCLLNNFYPREAKVQWKVDNALQSGNSQESVTEQDSKDSTYSLSSTLTLSKADYEKHKVYACEVTHQGLSSPVTKSFNRGEC | 103 % of GpH7-A5/GpH7-B3/GpL16-k0 (=100)
4 | GpH7-A5/GpH7-B3 variant I332_16H/GpL16-k0 (antibody, human IgG1, kappa, also called He Ab I332_16H) heavy 1: not shown heavy 2: not shown light: DIVMTQSPLSLPVTPGEPASISCQASESLVHSNRNTYLHWYLQKPGQSPQLLIYKVSNRFSGVPDRFSGSGSGTDFTLKISRVEAEDVGVYYCSQNTHVPPTFGQGTKVEIERTVAAPSVFIFPPSDEQLKSGTASVVCLLNNFYPREAKVQWKVDNALQSGNSQESVTEQDSKDSTYSLSSTLTLSKADYEKHKVYACEVTHQGLSSPVTKSFNRGEC | 109 % of GpH7-A5/GpH7-B3/GpL16-k0 (=100)
5 | GpH7-A5/GpH7-B3 variant I332_03V/GpL16-k0 (antibody, human IgG1, kappa, also called He Ab I332_03V) heavy 1: not shown heavy 2: not shown light: DIVMTQSPLSLPVTPGEPASISCQASESLVHSNRNTYLHWYLQKPGQSPQLLIYKVSNRFSGVPDRFSGSGSGTDFTLKISRVEAEDVGVYYCSQNTHVPPTFGQGTKVEIERTVAAPSVFIFPPSDEQLKSGTASVVCLLNNFYPREAKVQWKVDNALQSGNSQESVTEQDSKDSTYSLSSTLTLSKADYEKHKVYACEVTHQGLSSPVTKSFNRGEC | 105 % of GpH7-A5/GpH7-B3/GpL16-k0 (=100)
6 | GpH7-A5/GpH7-B3 variant I332_19Q/GpL16-k0 (antibody, human IgG1, kappa, also called He Ab I332_19Q) heavy 1: not shown heavy 2: not shown light: DIVMTQSPLSLPVTPGEPASISCQASESLVHSNRNTYLHWYLQKPGQSPQLLIYKVSNRFSGVPDRFSGSGSGTDFTLKISRVEAEDVGVYYCSQNTHVPPTFGQGTKVEIERTVAAPSVFIFPPSDEQLKSGTASVVCLLNNFYPREAKVQWKVDNALQSGNSQESVTEQDSKDSTYSLSSTLTLSKADYEKHKVYACEVTHQGLSSPVTKSFNRGEC | 108 % of GpH7-A5/GpH7-B3/GpL16-k0 (=100)
7 | GpH7-A5/GpH7-B3 variant K326_10E/GpL16-k0 (antibody, human IgG1, kappa, also called He Ab K326_10E) heavy 1: not shown heavy 2: not shown light: DIVMTQSPLSLPVTPGEPASISCQASESLVHSNRNTYLHWYLQKPGQSPQLLIYKVSNRFSGVPDRFSGSGSGTDFTLKISRVEAEDVGVYYCSQNTHVPPTFGQGTKVEIERTVAAPSVFIFPPSDEQLKSGTASVVCLLNNFYPREAKVQWKVDNALQSGNSQESVTEQDSKDSTYSLSSTLTLSKADYEKHKVYACEVTHQGLSSPVTKSFNRGEC | 102 % of GpH7-A5/GpH7-B3/GpL16-k0 (=100)
8 | GpH7-A5/GpH7-B3 variant H268_13S/GpL16-k0 (antibody, human IgG1, kappa, also called He Ab H268_13S) heavy 1: not shown heavy 2: not shown light: DIVMTQSPLSLPVTPGEPASISCQASESLVHSNRNTYLHWYLQKPGQSPQLLIYKVSNRFSGVPDRFSGSGSGTDFTLKISRVEAEDVGVYYCSQNTHVPPTFGQGTKVEIERTVAAPSVFIFPPSDEQLKSGTASVVCLLNNFYPREAKVQWKVDNALQSGNSQESVTEQDSKDSTYSLSSTLTLSKADYEKHKVYACEVTHQGLSSPVTKSFNRGEC | 112 % of GpH7-A5/GpH7-B3/GpL16-k0 (=100)
9 | GpH7-A5/GpH7-B3 variant I332_13S/GpL16-k0 (antibody, human IgG1, kappa, also called He Ab I332_13S) heavy 1: not shown heavy 2: not shown light: DIVMTQSPLSLPVTPGEPASISCQASESLVHSNRNTYLHWYLQKPGQSPQLLIYKVSNRFSGVPDRFSGSGSGTDFTLKISRVEAEDVGVYYCSQNTHVPPTFGQGTKVEIERTVAAPSVFIFPPSDEQLKSGTASVVCLLNNFYPREAKVQWKVDNALQSGNSQESVTEQDSKDSTYSLSSTLTLSKADYEKHKVYACEVTHQGLSSPVTKSFNRGEC | 110 % of GpH7-A5/GpH7-B3/GpL16-k0 (=100)
10 | GpH7-A5/GpH7-B3 variant K326_19Q/GpL16-k0 (antibody, human IgG1, kappa, also called He Ab K326_19Q) heavy 1: not shown heavy 2: not shown light: DIVMTQSPLSLPVTPGEPASISCQASESLVHSNRNTYLHWYLQKPGQSPQLLIYKVSNRFSGVPDRFSGSGSGTDFTLKISRVEAEDVGVYYCSQNTHVPPTFGQGTKVEIERTVAAPSVFIFPPSDEQLKSGTASVVCLLNNFYPREAKVQWKVDNALQSGNSQESVTEQDSKDSTYSLSSTLTLSKADYEKHKVYACEVTHQGLSSPVTKSFNRGEC | 101 % of GpH7-A5/GpH7-B3/GpL16-k0 (=100)
11 | GpH7-A5/GpH7-B3 variant I332_09D/GpL16-k0 (antibody, human IgG1, kappa, also called He Ab I332_09D) heavy 1: not shown heavy 2: not shown light: DIVMTQSPLSLPVTPGEPASISCQASESLVHSNRNTYLHWYLQKPGQSPQLLIYKVSNRFSGVPDRFSGSGSGTDFTLKISRVEAEDVGVYYCSQNTHVPPTFGQGTKVEIERTVAAPSVFIFPPSDEQLKSGTASVVCLLNNFYPREAKVQWKVDNALQSGNSQESVTEQDSKDSTYSLSSTLTLSKADYEKHKVYACEVTHQGLSSPVTKSFNRGEC | 118 % of GpH7-A5/GpH7-B3/GpL16-k0 (=100)

Source: patent US20180155451A1 (published 2018)
